Reference: patent US20050026839A1 (GENERAL HOSPITAL, published 2005)
Square brackets hold non-standard residues; d marks the D form. Ends that are not written are not given here. hArg = N=C(N)NCCCC[C@H](N)C(=O)O; Nle = CCCC[C@H](N)C(=O)O; Aib = CC(C)(N)C(=O)O

B1: [Aib^1,3,M]PTH(1-14) (peptide)
peptide: [Aib]V[Aib]EIQLMHQ[hArg]AKW-NH2
modifications: N-terminus assumed
SMILES: CC[C@H](C)[C@H](NC(=O)[C@H](CCC(=O)O)NC(=O)C(C)(C)NC(=O)[C@@H](NC(=O)C(C)(C)N)C(C)C)C(=O)N[C@@H](CCC(N)=O)C(=O)N[C@@H](CC(C)C)C(=O)N[C@@H](CCSC)C(=O)N[C@@H](Cc1c[nH]cn1)C(=O)N[C@@H](CCC(N)=O)C(=O)N[C@@H](CCCCNC(=N)N)C(=O)N[C@@H](C)C(=O)N[C@@H](CCCCN)C(=O)N[C@@H](Cc1c[nH]c2ccccc12)C(N)=O
notes: also called 671 [Aib^1,3, M]PTH (1-14); 671 [Aib^1,3M]PTH(1-14)
B2: [Aib^1,3,M]PTH(1-21) (peptide)
peptide: [Aib]V[Aib]EIQL[Nle]HQ[hArg]AKWLASVRRY-NH2
modifications: N-terminus assumed
SMILES: CCCC[C@H](NC(=O)[C@H](CC(C)C)NC(=O)[C@H](CCC(N)=O)NC(=O)[C@@H](NC(=O)[C@H](CCC(=O)O)NC(=O)C(C)(C)NC(=O)[C@@H](NC(=O)C(C)(C)N)C(C)C)[C@@H](C)CC)C(=O)N[C@@H](Cc1c[nH]cn1)C(=O)N[C@@H](CCC(N)=O)C(=O)N[C@@H](CCCCNC(=N)N)C(=O)N[C@@H](C)C(=O)N[C@@H](CCCCN)C(=O)N[C@@H](Cc1c[nH]c2ccccc12)C(=O)N[C@@H](CC(C)C)C(=O)N[C@@H](C)C(=O)N[C@@H](CO)C(=O)N[C@H](C(=O)N[C@@H](CCCNC(=N)N)C(=O)N[C@@H](CCCNC(=N)N)C(=O)N[C@@H](Cc1ccc(O)cc1)C(N)=O)C(C)C
notes: unlabeled peptide; also called 674 [Aib^1,3, M]PTH (1-21); 674 [Aib^1,3M]PTH(1-21)

Experiments:
[1] = biological target: T1, truncated human P1R deleted for residues (24-181) (hP1R-delNt) (human, UniProt Q03431 182-593); experiment: competition binding, 125I-[Aib1,3,M]PTH(1-21) tracer, COS-7 cells expressing hP1R-delNt
T1 construct: whole, on cells; also called delNT receptor
T1 sequence (looked up): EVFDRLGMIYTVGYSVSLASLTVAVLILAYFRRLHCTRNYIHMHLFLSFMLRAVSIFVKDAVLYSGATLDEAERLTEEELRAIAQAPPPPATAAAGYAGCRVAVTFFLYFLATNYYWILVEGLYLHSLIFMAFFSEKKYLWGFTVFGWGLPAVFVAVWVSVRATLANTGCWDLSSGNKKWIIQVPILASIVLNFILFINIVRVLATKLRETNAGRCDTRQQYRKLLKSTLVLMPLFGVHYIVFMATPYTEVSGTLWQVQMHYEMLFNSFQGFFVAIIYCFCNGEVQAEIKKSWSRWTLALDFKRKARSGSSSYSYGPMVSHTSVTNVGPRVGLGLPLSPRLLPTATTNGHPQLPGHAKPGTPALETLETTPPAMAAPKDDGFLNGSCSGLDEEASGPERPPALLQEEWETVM
Description: Stock solutions of EGTA/trypsin and antibiotics were from GIBCO; fetal bovine serum was from Hyclone Laboratories (Logan, Utah). […] All cells, in 24-well plates, were treated with fresh media and shifted to 33° C. for 12 to 24 h prior to assay.
Competition Binding. Binding reactions were performed with HKRK-B28 cells or in COS-7 cells in 24-well plates. The cells were rinsed with 0.5 mL of binding buffer, and then treated successively with 100 μL binding buffer, 100 μL of binding buffer containing various amounts of unlabeled competitor ligand, and 100 μL of binding buffer containing ca. 100,000 cpm of ¹²⁵I-[M]PTH(1-21) or ¹²⁵I-[Aib^{1,3},M]PTH(1-21)} (ca. 26 fmol; final volume=300 μL). Incubations were 4 to 6 h at 4° C., at which time near equilibrium conditions were attained. Cells were then placed on ice, the binding medium was removed, and the monolayer was rinsed three times with 0.5 mL of cold binding buffer. The cells were subsequently lysed with 0.5 mL […] NaOH and counted for radioactivity. For each tracer and in each experiment, the non-specific binding was determined as the radioactivity that bound in the presence of the same unlabeled peptide at a concentration of 1 μM, and was ˜1% of total radioactivity added for each tracer. The maximum specific binding (B₀) was the total radioactivity bound in the absence of competing ligand, corrected for nonspecific binding, and for each tracer, ranged from 8% to 20% of the total radioactivity added. Nonlinear regression was used to calculate binding IC₅₀ values (see below). Scatchard transformations of homologous competition binding data derived from studies with 26 fmol of ¹²⁵I-[Aib^{1,3},M]PTH(1-21) were employed for estimations of apparent equilibrium dissociation constant (kDapps) and total number of ligand binding sites (Bₘₐₓ), assuming a single class of binding sites and equal affinities of the iodinated and non iodinated ligand.

[2] = biological target: T2, wild-type human PTH/PTHrP receptor (hP1R-WT) (human, UniProt Q03431 27-593); experiment: cell-based or functional assay
T2 sequence (looked up): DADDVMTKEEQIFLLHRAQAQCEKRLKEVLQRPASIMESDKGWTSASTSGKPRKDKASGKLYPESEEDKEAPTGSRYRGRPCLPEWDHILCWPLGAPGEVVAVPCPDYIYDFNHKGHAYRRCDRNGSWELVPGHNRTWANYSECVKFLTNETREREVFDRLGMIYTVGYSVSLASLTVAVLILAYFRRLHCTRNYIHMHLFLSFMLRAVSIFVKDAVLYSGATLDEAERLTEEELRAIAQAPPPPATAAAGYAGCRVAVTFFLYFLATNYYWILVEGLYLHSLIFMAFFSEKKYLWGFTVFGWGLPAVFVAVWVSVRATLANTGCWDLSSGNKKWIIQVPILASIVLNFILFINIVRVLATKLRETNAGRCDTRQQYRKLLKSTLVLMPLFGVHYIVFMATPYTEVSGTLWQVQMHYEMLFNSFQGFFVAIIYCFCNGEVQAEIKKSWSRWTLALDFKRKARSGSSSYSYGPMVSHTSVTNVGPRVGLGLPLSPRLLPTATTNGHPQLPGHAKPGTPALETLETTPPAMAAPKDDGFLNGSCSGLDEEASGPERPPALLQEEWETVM

[3] = biological target: T1, truncated human P1R deleted for …; experiment: cell-based or functional assay
[4] = biological target: T2, wild-type human PTH/PTHrP receptor …; experiment: cell-based or functional assay; remark: listed apart in the source
[5] = biological target: T2, wild-type human PTH/PTHrP receptor …; experiment: competition binding, COS-7 cells expressing P1R-WT
[6] = biological target: T2, wild-type human PTH/PTHrP receptor …; experiment: competition binding, 125I-[M]PTH(1-21) tracer, HKRK-B28 cells, 4 h at 4 C
Outline: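 Cells are incubated with about 26 fmol ¹²⁵I-[M]PTH(1-21) tracer and unlabeled competitor in 300 μL for 4 h at 4 °C, then washed, lysed and counted. Nonspecific binding is defined with 1 μM of the same unlabeled peptide. IC50 values come from nonlinear regression, and the peptides are rat-PTH-based and C-terminally amidated.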

Row | Binder | IC50 [1] [nM] | PLC EC50 [2] [nM] | PLC EMAX(obs.) [2] [foldxbasal] | cAMP EC50 [2] [nM] | cAMP EMax(obs.) [2] [pmole/well] | PLC EC50 [3] [nM] | PLC EMAX(obs.) [3] [foldxbasal] | cAMP EC50 [3] [nM] | cAMP EMax(obs.) [3] [pmole/well] | cAMP EMAX(obs.) in SaOS-2 cells [4] [pmole/well] | fold stronger binding affinity than [M]PTH(1-14) [5] [fold] | IC50 [6] [nM]
1 | B1 | 1600 | 71 | 4.3 | 1.2 | 240 | 130 | 3.1 | 0.73 | 250 | 320 | ~10 | 130
2 | B2 | 27 |  |  | 0.8 | 300 |  |  | 0.38 | 240 |  |  | 31
